# According to patent US20240010754A1 (JIANGSU HENGRUI MEDICINE, published 2024):
# Changes are numbered by the printed parent chain. Names and notes keep the numbering of the source.
# T1: human FAP (human, UniProt Q12884 1-760)
# T1 construct: whole, on cells; also called CHO/FAP; Flp-In CHO/FAP
# T1 sequence (looked up): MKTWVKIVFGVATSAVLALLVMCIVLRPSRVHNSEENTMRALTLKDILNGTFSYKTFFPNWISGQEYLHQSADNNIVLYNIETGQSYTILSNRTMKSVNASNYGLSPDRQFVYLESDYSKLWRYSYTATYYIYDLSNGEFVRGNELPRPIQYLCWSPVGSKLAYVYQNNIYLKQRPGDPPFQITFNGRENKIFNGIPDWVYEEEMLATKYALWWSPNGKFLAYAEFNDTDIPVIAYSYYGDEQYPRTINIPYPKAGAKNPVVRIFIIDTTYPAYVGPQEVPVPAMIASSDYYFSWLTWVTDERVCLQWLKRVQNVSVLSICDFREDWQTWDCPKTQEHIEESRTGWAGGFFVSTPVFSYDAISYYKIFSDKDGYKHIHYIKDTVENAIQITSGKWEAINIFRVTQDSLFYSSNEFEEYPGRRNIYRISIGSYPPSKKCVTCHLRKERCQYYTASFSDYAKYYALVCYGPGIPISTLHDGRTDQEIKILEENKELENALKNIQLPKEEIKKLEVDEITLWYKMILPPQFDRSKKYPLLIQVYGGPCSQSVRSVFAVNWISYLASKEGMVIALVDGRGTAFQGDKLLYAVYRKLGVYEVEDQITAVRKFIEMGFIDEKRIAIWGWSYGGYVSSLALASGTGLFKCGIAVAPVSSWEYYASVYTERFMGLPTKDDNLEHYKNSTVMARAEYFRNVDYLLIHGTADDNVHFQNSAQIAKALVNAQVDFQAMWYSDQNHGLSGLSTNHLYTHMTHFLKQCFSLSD
# B1: ERP2006-BS0012 (bispecific antibody, human IgG1, kappa, lambda)
# heavy: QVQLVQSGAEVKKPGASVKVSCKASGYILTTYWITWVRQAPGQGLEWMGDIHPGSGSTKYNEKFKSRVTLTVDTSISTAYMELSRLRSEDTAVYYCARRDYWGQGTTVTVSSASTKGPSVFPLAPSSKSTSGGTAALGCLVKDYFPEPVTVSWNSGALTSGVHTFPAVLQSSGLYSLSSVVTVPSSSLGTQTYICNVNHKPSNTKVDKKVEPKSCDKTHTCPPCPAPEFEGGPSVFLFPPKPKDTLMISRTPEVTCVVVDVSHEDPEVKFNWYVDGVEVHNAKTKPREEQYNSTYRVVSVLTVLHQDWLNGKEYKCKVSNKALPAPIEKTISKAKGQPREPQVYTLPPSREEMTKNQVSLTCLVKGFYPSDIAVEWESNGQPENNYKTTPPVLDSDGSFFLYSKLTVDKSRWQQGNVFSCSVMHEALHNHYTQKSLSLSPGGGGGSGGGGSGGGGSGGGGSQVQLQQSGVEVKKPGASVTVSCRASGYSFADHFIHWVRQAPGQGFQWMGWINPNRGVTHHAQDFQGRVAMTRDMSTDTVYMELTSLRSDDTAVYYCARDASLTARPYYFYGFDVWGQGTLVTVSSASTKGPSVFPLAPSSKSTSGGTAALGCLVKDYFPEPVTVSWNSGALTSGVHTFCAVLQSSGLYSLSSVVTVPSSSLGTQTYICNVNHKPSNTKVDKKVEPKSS
# light 1: DIVMTQSPLSLPVTPGEPASISCRSSQNIVNSQGNTYLEWYLQKPGQSPQLLIYKVTNRFSGVPDRFSGSGSGTDFTLKISRVEAEDVGVYYCFQASLVPWTFGGGTKVEIKRTVAAPSVFIFPPSDEQLKSGTASVVCLLNNFYPREAKVQWKVDNALQSGNSQESVTEQDSKDSTYSLSSTLTLSKADYEKHKVYACEVTHQGLSSPVTKSFNRGEC
# light 2: DIQMTQSPSSVSASVGDRVTITCRASQGISSWLAWYQQKPGKAPKLLIYAASSLQSGVPSRFSGSGSGTDFTLTISSLQPEDFATYYCQQANSFPPAFGQGTKVEIKGQPKAAPSVTLFPPSSEELQANKATLVCLISDFYPGAVTVAWKADSSPVKAGVETTTPCKQSNNKYAASSYLSLTPEQWKSHRSYSCQVTHEGSTVEKTVAPTESS
# notes: 2+2 symmetric bispecific: [CD40 VH-CH1]-Fc-linker-[FAP VH-CH1] heavy chain with two kinds of light chain; also called FAP×CD40 bispecific antibody
# B2: ERP2006-BS0015 (bispecific antibody)
# heavy: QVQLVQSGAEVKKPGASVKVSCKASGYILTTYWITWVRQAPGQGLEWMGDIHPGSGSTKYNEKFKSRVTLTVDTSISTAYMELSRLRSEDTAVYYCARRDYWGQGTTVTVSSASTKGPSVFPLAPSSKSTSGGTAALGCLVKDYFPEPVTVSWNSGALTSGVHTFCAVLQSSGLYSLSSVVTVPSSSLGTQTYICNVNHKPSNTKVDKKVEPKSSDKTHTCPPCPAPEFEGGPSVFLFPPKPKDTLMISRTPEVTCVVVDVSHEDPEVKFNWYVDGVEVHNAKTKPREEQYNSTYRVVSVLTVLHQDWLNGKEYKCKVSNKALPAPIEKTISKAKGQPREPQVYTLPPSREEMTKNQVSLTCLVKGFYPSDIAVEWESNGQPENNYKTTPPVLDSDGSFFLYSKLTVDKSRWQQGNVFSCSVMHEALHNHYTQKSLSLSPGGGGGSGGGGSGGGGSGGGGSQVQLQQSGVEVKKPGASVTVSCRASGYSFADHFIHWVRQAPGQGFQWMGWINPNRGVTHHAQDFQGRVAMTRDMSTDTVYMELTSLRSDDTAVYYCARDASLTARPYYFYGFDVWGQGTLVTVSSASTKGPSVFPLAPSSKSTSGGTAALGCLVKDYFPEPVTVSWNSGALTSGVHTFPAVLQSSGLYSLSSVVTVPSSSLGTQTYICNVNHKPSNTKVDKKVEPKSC
# light 1: DIVMTQSPLSLPVTPGEPASISCRSSQNIVNSQGNTYLEWYLQKPGQSPQLLIYKVTNRFSGVPDRFSGSGSGTDFTLKISRVEAEDVGVYYCFQASLVPWTFGGGTKVEIKGQPKAAPSVTLFPPSSEELQANKATLVCLISDFYPGAVTVAWKADSSPVKAGVETTTPCKQSNNKYAASSYLSLTPEQWKSHRSYSCQVTHEGSTVEKTVAPTESS
# light 2: DIQMTQSPSSVSASVGDRVTITCRASQGISSWLAWYQQKPGKAPKLLIYAASSLQSGVPSRFSGSGSGTDFTLTISSLQPEDFATYYCQQANSFPPAFGQGTKVEIKRTVAAPSVFIFPPSDEQLKSGTASVVCLLNNFYPREAKVQWKVDNALQSGNSQESVTEQDSKDSTYSLSSTLTLSKADYEKHKVYACEVTHQGLSSPVTKSFNRGEC
# notes: as for B1
# B3: parent FAP monoclonal antibody Ab10 (antibody, V domains shown)
# VH: QVQLQQSGVEVKKPGASVTVSCRASGYSFADHFIHWVRQAPGQGFQWMGWINPNRGVTHHAQDFQGRVAMTRDMSTDTVYMELTSLRSDDTAVYYCARDASLTARPYYFYGFDVWGQGTLVTVSS
# VL: DIQMTQSPSSVSASVGDRVTITCRASQGISSWLAWYQQKPGKAPKLLIYAASSLQSGVPSRFSGSGSGTDFTLTISSLQPEDFATYYCQQANSFPPAFGQGTKVEIK
# notes: also called AblO
# B4: TJ030-PR1102 (bispecific antibody, human IgG1, kappa, L234A L235A)
# heavy 1: not shown
# light 1: B1 light 1 with S7T, N28S, I29L, N31H, Q33T, T57S, A96G, L98H, W101Y
# heavy 2: not shown
# light 2: not shown
# notes: 1+1 asymmetric knob-into-hole bispecific IgG1; knob on the PD-1 arm, hole on the CTLA-4 arm; tested after polishing purification; also called PD-1×CTLA-4 bispecific antibody (F126C-S121C placed into the CTLA-4 arm)
# B5: TJ030-PR1104 (bispecific antibody, human IgG1, kappa, L234A L235A)
# heavy 1: not shown
# light 1: B1 light 1 with S7T, N28S, I29L, N31H, Q33T, T57S, A96G, L98H, W101Y
# heavy 2: not shown
# light 2: not shown
# notes: 1+1 asymmetric knob-into-hole bispecific IgG1; knob on the PD-1 arm, hole on the CTLA-4 arm; tested after polishing purification; also called PD-1×CTLA-4 bispecific antibody (F170C-T164C placed into the CTLA-4 arm)
# B6: TJ030-PR1106 (bispecific antibody, human IgG1, kappa, L234A L235A)
# heavy 1: not shown
# light 1: DIVMTQTPLSLPVTPGEPASISCRSSQSLVHSTGNTYLEWYLQKPGQSPQLLIYKVSNRFSGVPDRFSGSGSGTDFTLKISRVEAEDVGVYYCFQGSHVPYTFGGGTKVEIKRTVAAPSVFIFPPCDEQLKSGTASVVCLLNNFYPREAKVQWKVDNALQSGNSQESVTEQDSKDSTYSLSSTLTLSKADYEKHKVYACEVTHQGLSSPVTKSFNRGEA
# heavy 2: not shown
# light 2: not shown
# notes: 1+1 asymmetric knob-into-hole bispecific IgG1; knob on the PD-1 arm, hole on the CTLA-4 arm; tested after polishing purification; also called PD-1×CTLA-4 bispecific antibody (F126C-S121C placed into the PD-1 arm)
# B7: TJ030-PR1108 (bispecific antibody, human IgG1, kappa, L234A L235A)
# heavy 1: not shown
# light 1: B6 light 1 with C126S, T169C
# heavy 2: not shown
# light 2: not shown
# notes: 1+1 asymmetric knob-into-hole bispecific IgG1; knob on the PD-1 arm, hole on the CTLA-4 arm; tested after polishing purification; also called PD-1×CTLA-4 bispecific antibody (F170C-T164C placed into the PD-1 arm)
# Biological target: T1, human FAP
# Experiment: FACS binding to CHO/FAP cells
# Description: (§1) CHO cells stably expressing human FAP (i.e., CHO/FAP cells) and HEK293 cells 48 hours after transient transfection (i.e., HEK293/CD40 cells) in the logarithmic growth phase were collected by centrifugation, washed with PBS and then centrifuged. The cells were plated at 2E5 cells/100 μL/well and centrifuged at 400 g for 5 min Different concentrations of test antibody were added. The cells were incubated on ice for 1 h, washed with PBS and centrifuged at 400 g for 5 min The goat anti-human secondary antibody Alexa Fluor 488 with a fluorophore was added, and the cells were stained in an ice bath for 1 h, washed twice with PBS and then assayed on a flow cytometer.
# (§2) The bispecific antibodies ERP2006-BS0012 and ERP2006-BS0015 have similar affinity for FAP to the parent FAP monoclonal antibody AblO and similar affinity for CD40 to the parent CD40 monoclonal antibody 9E5-25.
Binder,EC50 [nM],binding result
B1,0.349,
B2,0.336,
B3,,binds

# Biological target: T2, human CD40 (human, UniProt P25942 21-277)
# T2 construct: whole, on cells; also called HEK293/CD40; HEK-Blue CD40L cell
# T2 sequence (P25942 21-277): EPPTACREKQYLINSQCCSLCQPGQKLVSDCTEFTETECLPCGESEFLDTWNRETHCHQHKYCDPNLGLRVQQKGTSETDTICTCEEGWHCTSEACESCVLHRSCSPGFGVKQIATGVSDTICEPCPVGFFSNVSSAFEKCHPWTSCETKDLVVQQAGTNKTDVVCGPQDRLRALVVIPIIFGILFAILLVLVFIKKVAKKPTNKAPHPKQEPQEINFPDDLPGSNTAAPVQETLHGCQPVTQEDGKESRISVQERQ
# Experiment: FACS binding to HEK293/CD40 cells
# Description: as §1, §2
row,Binder,EC50 [nM]
1,B1,0.471
2,B2,0.456

# Biological target: T3, human PD-1 (human, UniProt Q15116 25-288)
# T3 construct: whole, on cells; also called CHO-K1/PD-1
# T3 sequence (Q15116 25-288): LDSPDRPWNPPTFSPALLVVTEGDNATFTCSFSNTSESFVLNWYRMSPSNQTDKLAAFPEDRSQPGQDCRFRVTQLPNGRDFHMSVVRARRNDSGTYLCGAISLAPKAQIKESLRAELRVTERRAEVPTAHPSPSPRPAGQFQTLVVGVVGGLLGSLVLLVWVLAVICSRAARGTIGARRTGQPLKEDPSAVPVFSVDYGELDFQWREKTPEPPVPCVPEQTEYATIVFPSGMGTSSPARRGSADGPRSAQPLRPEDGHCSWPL
# Experiment: flow cytometry cell cross-linking (CHO-K1/PD-1 + HEK293/CTLA-4 cells), antibody at 1 nM
# Description: (§3) The ability of PD-1×CTLA-4 bispecific antibodies to co-bind to cells highly expressing human PD-1 and human CTLA-4 after polishing purification was determined by flow cytometry. First, HEK293 cells were transiently transfected with human CTLA-4 plasmids, and 24 h after the transfection, the HEK293 cells highly expressing CTLA-4 were labeled with Cell Trace Far red (Invitrogen, C34564), and the CHO-K1/PD-1 stably transfected strain was labeled with Cell Trace Violet (Invitrogen, C34557). The cells were added to a 96-well U-bottom plate (Costar, 3599) at 2E5 cells/well, and the test antibody was diluted to 100 nM, 10 nM, 1 nM, 0.1 nM and 0.01 nM and added to the 96-well U-bottom plate at 50 μL/well, making a total volume of 150 μL/well. The plate was incubated at 4° C. in a dark place for 1 h. The double-positive cell percentage of HEK293/CTLA-4 of CTLA-4 and CHO-K1/PD-1 was determined by flow cytometry.
# (§4) According to Example 1.4, the ability of each of the PD-1×CTLA-4 bispecific antibodies TJ030-PR1102 (F126C-S121C was placed into the CTLA-4 arm), TJ030-PR1104 (F170C-T164C was placed into the CTLA-4 arm), TJ030-PR1106 (F126C-S121C was placed into the PD-1 arm) and TJ030-PR1108 (F170C-T164C was placed into the PD-1 arm) to co-bind to cells highly expressing human PD-1 and human CTLA-4 after polishing purification was determined by flow cytometry, with CTLA-4 monoclonal antibody and IgG as negative controls. […] Such cross-linking of cells occurred in bispecific antibody molecule incubation only rather than monoclonal antibody or IgG1 incubation.
row,Binder,proportion of double-positive cells [%]
1,B4,25.1
2,B5,30.5
3,B6,34.7
4,B7,33.2

# Biological target: T3, human PD-1
# Experiment: flow cytometry cell cross-linking (CHO-K1/PD-1 + HEK293/CTLA-4 cells), antibody at 3 nM
# Description: as §3, §4
row,Binder,proportion of double-positive cells [%]
1,B4,32.2
2,B5,35.8
3,B6,37.4
4,B7,35.3

# Biological target: T3, human PD-1
# Experiment: flow cytometry cell cross-linking (CHO-K1/PD-1 + HEK293/CTLA-4 cells), antibody at 10 nM
# Description: as §3, §4
row,Binder,proportion of double-positive cells [%]
1,B4,32.4
2,B5,34.8
3,B6,38.1
4,B7,37.7

# Biological target: T3, human PD-1
# Experiment: flow cytometry cell cross-linking (CHO-K1/PD-1 + HEK293/CTLA-4 cells), antibody at 30 nM
# Description: as §3, §4
row,Binder,proportion of double-positive cells [%]
1,B4,26.7
2,B5,32.1
3,B6,33.1
4,B7,31.4

# Biological target: T3, human PD-1
# Experiment: flow cytometry cell cross-linking (CHO-K1/PD-1 + HEK293/CTLA-4 cells), antibody at 0.1 nM
# Description: as §3, §4
row,Binder,proportion of double-positive cells [%]
1,B4,11.8
2,B5,18.2
3,B6,19.1
4,B7,17

# Biological target: T3, human PD-1
# Experiment: flow cytometry cell cross-linking (CHO-K1/PD-1 + HEK293/CTLA-4 cells), antibody at 0.3 nM
# Description: as §3, with “The cells were added to a 96-well U-bottom plate (Costar, 3599) at 2E5 cells/well, and the test antibody was diluted to 100 nM, 10 nM, 1 nM, 0.1 nM and 0.01 nM and added to the 96-well U-bottom plate at 50 μL/well, making a total volume of 150 μL/well.” left out
# as §4
row,Binder,proportion of double-positive cells [%]
1,B4,20.7
2,B5,25.3
3,B6,26.3
4,B7,24.2

# Biological target: T3, human PD-1
# Experiment: flow cytometry cell cross-linking (CHO-K1/PD-1 + HEK293/CTLA-4 cells), antibody at 100 nM
# Description: as §3, §4
row,Binder,proportion of double-positive cells [%]
1,B4,22.2
2,B5,25.4
3,B6,23.9
4,B7,27.2

# Biological target: T3, human PD-1
# Experiment: flow cytometry cell cross-linking (CHO-K1/PD-1 + HEK293/CTLA-4 cells), antibody at 0.03 nM
# Description: as §3, with “The cells were added to a 96-well U-bottom plate (Costar, 3599) at 2E5 cells/well, and the test antibody was diluted to 100 nM, 10 nM, 1 nM, 0.1 nM and 0.01 nM and added to the 96-well U-bottom plate at 50 μL/well, making a total volume of 150 μL/well.” left out
# as §4
row,Binder,proportion of double-positive cells [%]
1,B4,8.87
2,B5,10.4
3,B6,10.9
4,B7,11.8
